In patent EP4653461A1 (DE NOVO BIOTHERAPEUTICS CO., LTD., dated 2025):
Like-named read-outs stand apart in the source and are kept apart here.

Tests used:
[1] = biological target: T1, 6506GJ130-1A: Human NKP46 Recombinant Protein (His) (human, UniProt O76036 22-258, limits assumed); assay: SPR, Biacore 8K; reference 1-2
T1 construct: also called human NKp46 protein; not shown: His tag

[2] = biological target: T1, 6506GJ130-1A: Human NKP46 Recombinant …; assay: SPR, Biacore 8K, antibody captured on Protein A chip, NKp46 as analyte
[3] = biological target: T1, 6506GJ130-1A: Human NKP46 Recombinant …; assay: as above; remark: listed apart in the source
[4] = biological target: T1, 6506GJ130-1A: Human NKP46 Recombinant …; assay: SPR, Biacore 8K; reference 2-3
[5] = biological target: T1, 6506GJ130-1A: Human NKP46 Recombinant …; assay: competition ELISA, NKp46-His coated; no competitor (Control)
[6] = biological target: T1, 6506GJ130-1A: Human NKP46 Recombinant …; assay: competition ELISA, NKp46-His coated; competitor 1-2 at 20 ug/ml
[7] = biological target: T1, 6506GJ130-1A: Human NKP46 Recombinant …; assay: competition ELISA, NKp46-His coated; competitor 1-8 at 20 ug/ml
[8] = biological target: T1, 6506GJ130-1A: Human NKP46 Recombinant …; assay: competition ELISA, NKp46-His coated; competitor 2-1 at 20 ug/ml
[9] = biological target: T1, 6506GJ130-1A: Human NKP46 Recombinant …; assay: competition ELISA, NKp46-His coated; competitor 2-2 at 20 ug/ml
[10] = biological target: T1, 6506GJ130-1A: Human NKP46 Recombinant …; assay: competition ELISA, NKp46-His coated; competitor 2-3 at 20 ug/ml
[11] = biological target: T1, 6506GJ130-1A: Human NKP46 Recombinant …; assay: competition ELISA, NKp46-His coated; competitor 2-5 at 20 ug/ml
[12] = biological target: T1, 6506GJ130-1A: Human NKP46 Recombinant …; assay: competition ELISA, NKp46-His coated; competitor 2-7 at 20 ug/ml
[13] = biological target: T1, 6506GJ130-1A: Human NKP46 Recombinant …; assay: competition ELISA, NKp46-His coated; competitor 1-10 at 20 ug/ml
[14] = biological target: T1, 6506GJ130-1A: Human NKP46 Recombinant …; assay: competition ELISA, NKp46-His coated; competitor 2-10 at 20 ug/ml
[15] = biological target: T1, 6506GJ130-1A: Human NKP46 Recombinant …; assay: competition ELISA, NKp46-His coated; competitor 1-4-2 at 20 ug/ml
[16] = biological target: T1, 6506GJ130-1A: Human NKP46 Recombinant …; assay: SPR, Biacore 8K; reference 2-5

T1 sequence (O76036 22-258 limits assumed): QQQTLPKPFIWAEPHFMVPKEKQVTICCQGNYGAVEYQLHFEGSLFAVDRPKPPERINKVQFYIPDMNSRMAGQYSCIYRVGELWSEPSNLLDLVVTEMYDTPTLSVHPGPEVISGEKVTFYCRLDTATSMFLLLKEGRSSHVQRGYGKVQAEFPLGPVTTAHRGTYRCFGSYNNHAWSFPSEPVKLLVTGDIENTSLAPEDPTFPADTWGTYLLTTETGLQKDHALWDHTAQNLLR

B1: Hu 1-2 (antibody, V domains shown)
VH: QVQLVQSGAEVKKPGASVKVSCKASGYTFTDYYLNWVRQAPGQGLEWIGDIDPHNAGTSYNQKFKDRVTMTVDTSTSTVYMELSSLRSEDTAVYYCARFPIYYSGSSPMDYWGQGTLVTVSS
VL: DIQMTQSPSSLSASVGDRVTITCRTNENIFSYLAWYQQKPGKAPKLLIYNAKTLAEGVPSRFSGSGSGTDFTLTISSLQPEDFATYYCQHHYGTPYTFGGGTKLEIK
notes: Humanized form of 1-2; also called humanized 1-2
- fold change of KD against the unhumanized antibody [1]: ≤ 2 fold
- Kd [2]: 0.42 to 8.7 nM
- Kd [3]: 8.66 nM
- koff [3]: 0.000118 s⁻¹
- kon [3]: 13700 M⁻¹ s⁻¹

B2: Hu 2-3 (antibody, V domains shown)
VH: QVQLVQSGAEVKKPGASVKVSCKASGYTFTSYWMNWVRQAPGQGLEWIGMIHPNSDITNYNEKFKSRVTMTVDTSTSTVYMELSSLRSEDTAVYYCARHGRFDYWGQGTTVTVSS
VL: DIQMTQSPSSLSASVGDRVTITCRASQDIGSSLNWLQQKPGKAPKRLIYATSSLDAGVPKRFSGSGSGTDYTLTISSLQPEDFATYYCLQYASSPFTFGGGTKLEIK
notes: Humanized form of 2-3; also called humanized 2-3
- fold change of KD against the unhumanized antibody [4]: ≤ 2 fold
- Kd [2]: 0.42 to 8.7 nM
- Kd [3]: 0.421 nM
- koff [3]: 0.000138 s⁻¹
- kon [3]: 328000 M⁻¹ s⁻¹

B3: 28E10B12 (2-3) (antibody, IgG4, V domains shown)
VH: QVQLQQPGAELVKPGASVKLSCKASGYTFTSYWMNWVKQRPGQGLEWIGMIHPNSDITNYNEKFKSQATLTVDKSSSTAYMQLSSLTSEDSAVYYCARHGRFDYWGQGTTLTVSS
VL: DIQMTQSPSSLSASLGERVTLTCRASQDIGSSLNWLQQEPDGTIKRLIYATSSLDSGVPKRFSGSRSGSDYSLTISSLESEDFVDYYCLQYASSPFTFGSGTKLEIK
notes: Hybridoma clone; made as mouse/human chimeric IgG4
- ELISA signal [5]: 1.38
- ELISA signal [6]: 1.24
- ELISA signal [7]: 1.43
- ELISA signal [8]: 0.649
- ELISA signal [9]: 0.16
- ELISA signal [10]: 0.105
- ELISA signal [11]: 1.43
- ELISA signal [12]: 0.2
- ELISA signal [13]: 0.408
- ELISA signal [14]: 0.173
- ELISA signal [15]: 1.09
- Kd [2]: 0.24 to 30 nM
- Kd [3]: 0.244 nM
- koff [3]: 0.000136 s⁻¹
- kon [3]: 555000 M⁻¹ s⁻¹

B4: Hu 2-5 (antibody, V domains shown)
VH: QVQLQESGPGLVKPSQTLSLTCTVSGYSITSDDYWNWIRQPPGKGLEWIGYISYEGSNNYNPSLKNRVTISRDTSKNQFSLKLSSVTAADTAVYYCARLGYPAMDAWGQGTLVTVSS
VL: DIQMTQSPSSLSASVGDRVTITCKASQDINSYLSWFQQKPGKAPKSLIYRANRLVDGVPSRFSGSGSGTDYTLTISSLQPEDFATYYCLQYDEFPWTFGGGTKLEIK
notes: Humanized form of 2-5; also called humanized 2-5
- fold change of KD against the unhumanized antibody [16]: ≤ 2 fold
- Kd [3]: 3.83 nM
- koff [3]: 7.05e-05 s⁻¹
- kon [3]: 18400 M⁻¹ s⁻¹
